Numbering of substitutions follows the chain as printed.
B1: SEQ ID NO 38 (designed binder)
chain: GSIEQIQKFIASIQESIARIQKSIYAMTGGSGGSGGGSIEQIQKQIAAIQKQIAAIQKQIYAMTGSGGGGSGGSIEQIQKQITAIARQIVAIIVQITAMTP
notes: Alphabody, AC12 library clone
B2: SEQ ID NO 2 (designed binder)
chain: GSIEQIQKGIARIQEVIAKIQKGIYAMTGGSGGSGGGSIEQIQKQIAAIQKQIAAIQKQIYAMTGSGGGGSGGSIEQIQKQIVAITHQITAIIWQIWAMTP
notes: Alphabody, AC12 library clone
B3: SEQ ID NO 3 (designed binder)
chain: B1 chain with F9R, S12F, S16T, R19W, S23N, T83S, V90R, I93L, V94G, T97F
notes: Alphabody, AC12 library clone
B4: SEQ ID NO 4 (designed binder)
chain: GSIEQIQKTIAMIQEYIAWIQKKIYAMTGGSGGSGGGSIEQIQKQIAAIQKQIAAIQKQIYAMTGSGGGGSGGSIEQIQKQIRAIVGQIMAILRQITAMTP
notes: Alphabody, AC12 library clone
B5: SEQ ID NO 5 (designed binder)
chain: B1 chain with S12N, S16L, R19C, S23N, R87S, V90Y, I93V, V94A
notes: Alphabody, AC12 library clone
B6: SEQ ID NO 6 (designed binder)
chain: B4 chain with T9G, M12L, Y16W, K23S, R83L, V86S, G87L, R94E, T97M
notes: Alphabody, AC12 library clone
B7: SEQ ID NO 8 (designed binder)
chain: GSIEQIQKYIAPIQEIIAKIQKLIYAMTGGSGGSGGGSIEQIQKQIAAIQKQIAAIQKQIYAMTGSGGGGSGGSIEQIQKQIGAIISQIGAILGQIYAMTP
notes: Alphabody, AC12 library clone
B8: SEQ ID NO 9 (designed binder)
chain: B2 chain with G9K, R12T, V16Y, K19Y, G23F, V83K, T86L, H87G, T90G, W94G
notes: Alphabody, AC12 library clone
B9: SEQ ID NO 10 (designed binder)
chain: B2 chain with G9K, R12V, K19G, V83S, T86I, H87I, I93V, W94K, W97M
notes: Alphabody, AC12 library clone
B10: SEQ ID NO 13 (designed binder)
chain: B1 chain with F9R, S12P, S16C, R19F, S23L, A86G, V90M, I93F, V94I, T97W
notes: Alphabody, AC12 library clone
B11: SEQ ID NO 18 (designed binder)
chain: B4 chain with M12S, Y16V, W19A, K23Y, R83A, V86G, G87S, M90I, L93V, T97R
notes: Alphabody, AC12 library clone
B12: SEQ ID NO 19 (designed binder)
chain: B4 chain with M12A, Y16C, W19R, K23A, G87S, M90S, R94I, T97G
notes: Alphabody, AC12 library clone
B13: SEQ ID NO 20 (designed binder)
chain: B2 chain with G9V, K19S, G23Y, V83G, T86V, H87T, T90L, W94S, W97T
notes: Alphabody, AC12 library clone
B14: SEQ ID NO 22 (designed binder)
chain: B1 chain with F9M, S12P, S16L, S23D, T83G, A86T, V90L, I93L, T97G
notes: Alphabody, AC12 library clone
B15: SEQ ID NO 23 (designed binder)
chain: B1 chain with S16C, S23T, T83K, A86R, R87T, V90F, I93F, V94R, T97Y
notes: Alphabody, AC12 library clone
B16: SEQ ID NO 25 (designed binder)
chain: B7 chain with P12R, I16K, K19Y, L23M, G83I, I86G, G90L, G94D
notes: Alphabody, AC12 library clone
B17: SEQ ID NO 26 (designed binder)
chain: B4 chain with T9L, M12V, W19L, R83K, V86A, G87T, M90S, L93I, T97F
notes: Alphabody, AC12 library clone
B18: SEQ ID NO 27 (designed binder)
chain: B1 chain with F9W, S12Q, S16N, R19D, S23L, T83P, R87Y, V90L, V94R, T97S
notes: Alphabody, AC12 library clone
B19: SEQ ID NO 29 (designed binder)
chain: B1 chain with F9L, S12R, R19M, S23K, T83I, R87K, V90L, I93V, V94S, T97K
notes: Alphabody, AC12 library clone
B20: SEQ ID NO 31 (designed binder)
chain: B4 chain with M12R, Y16G, W19V, K23L, G87R, M90T, L93M, R94T, T97F
notes: Alphabody, AC12 library clone
B21: SEQ ID NO 33 (designed binder)
chain: GSIEQIQKGIAPIQEMIASIQKVIYAMTGGSGGSGGGSIEQIQKQIAAIQKQIAAIQKQIYAMTGSGGGGSGGSIEQIQKQIMAIAFQIFAIMRQILAMTP
notes: Alphabody, AC12 library clone
B22: SEQ ID NO 36 (designed binder)
chain: B1 chain with S12P, S16Y, R19A, S23I, T83A, R87S, V90K, I93V, V94T, T97V
notes: Alphabody, AC12 library clone
B23: SEQ ID NO 40 (designed binder)
chain: B1 chain with F9G, S12I, S16T, R19Y, V90T, V94A, T97F
notes: Alphabody, AC12 library clone
B24: SEQ ID NO 42 (designed binder)
chain: B1 chain with F9V, S12P, S16Y, R19I, S23Y, T83S, A86M, V90Y, V94S, T97Q
notes: Alphabody, AC12 library clone
B25: SEQ ID NO 43 (designed binder)
chain: B7 chain with Y9L, P12S, I16Y, K19T, G83S, I86M, S87I, G90N, Y97F
notes: Alphabody, AC12 library clone
B26: SEQ ID NO 47 (designed binder)
chain: GSIEQIQKKIAGIQEVIALIQKFIYAMTGGSGGSGGGSIEQIQKQIAAIQKQIAAIQKQIYAMTGSGGGGSGGSIEQIQKQIRAISSQIQAIVLQILAMTP
notes: Alphabody, AC12 library clone
B27: SEQ ID NO 50 (designed binder)
chain: B1 chain with F9A, S12K, S16T, R19F, R87G, V90Y, I93L, V94Q, T97F
notes: Alphabody, AC12 library clone
B28: SEQ ID NO 59 (designed binder)
chain: B1 chain with F9W, S12L, S16K, S23D, T83N, R87G, V90L, I93A, V94T, T97M
notes: Alphabody, AC12 library clone
B29: SEQ ID NO 61 (designed binder)
chain: B26 chain with K9R, V16Y, L19K, F23S, R83S, S87R, Q90V, L94S
notes: Alphabody, AC12 library clone
B30: SEQ ID NO 64 (designed binder)
chain: B2 chain with G9V, V16P, K19V, G23M, V83S, T86R, H87S, T90L, W94R, W97F
notes: Alphabody, AC12 library clone
B31: SEQ ID NO 65 (designed binder)
chain: B21 chain with G9T, P12K, M16R, S19W, M83K, A86S, F87Y, F90I
notes: Alphabody, AC12 library clone
B32: SEQ ID NO 67 (designed binder)
chain: B21 chain with G9V, P12W, M16S, V23R, M83Q, F87N, F90T, M93V, L97I
notes: Alphabody, AC12 library clone
B33: SEQ ID NO 70 (designed binder)
chain: B21 chain with G9C, P12F, M16R, S19G, V23R, M83F, A86G, F87K, M93V, R94K
notes: Alphabody, AC12 library clone
B34: SEQ ID NO 71 (designed binder)
chain: B21 chain with G9P, P12A, M16K, S19R, V23R, A86N, F87R, F90L, M93L
notes: Alphabody, AC12 library clone
B35: SEQ ID NO 73 (designed binder)
chain: B1 chain with S16C, R19S, S23V, T83G, R87A, V90I, I93V, V94E, T97V
notes: Alphabody, AC12 library clone
B36: SEQ ID NO 74 (designed binder)
chain: B1 chain with F9K, S12Y, S16M, R19L, S23G, T83S, R87A, V90S, V94K, T97M
notes: Alphabody, AC12 library clone

What follows are binders tested against T1, human IL-23 (human, UniProt Q9NPF7 20-189; P29460 23-328) (assay: phage ELISA; IL-23 captured by anti-p40 antibody).
T1 construct: Heterodimer p19/p40; in the ELISA captured on the plate through a biotinylated anti-p40 antibody (clone C8.6); also called cytokine IL-23 (eBioscience, 34-8239-85)
T1 sequence (looked up) 1: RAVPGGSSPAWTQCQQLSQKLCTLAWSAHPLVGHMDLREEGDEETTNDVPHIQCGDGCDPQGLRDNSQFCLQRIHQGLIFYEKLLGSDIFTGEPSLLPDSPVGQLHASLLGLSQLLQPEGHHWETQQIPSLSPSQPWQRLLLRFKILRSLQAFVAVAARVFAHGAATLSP
T1 sequence (looked up) 2: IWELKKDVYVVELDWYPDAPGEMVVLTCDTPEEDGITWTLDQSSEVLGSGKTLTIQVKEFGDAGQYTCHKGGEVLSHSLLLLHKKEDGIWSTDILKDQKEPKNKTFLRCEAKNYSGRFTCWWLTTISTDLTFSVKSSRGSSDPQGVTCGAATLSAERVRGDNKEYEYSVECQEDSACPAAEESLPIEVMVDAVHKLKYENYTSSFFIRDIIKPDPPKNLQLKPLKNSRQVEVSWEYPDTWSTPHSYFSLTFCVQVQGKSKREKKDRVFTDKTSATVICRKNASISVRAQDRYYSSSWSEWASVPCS
Description: The set-up of the ELISA was as follows. Neutravidin was immobilized on the plate at a concentration of 0.010 mg/ml in PBS (0.100 ml) for 1 hour at room temperature (RT). Plates were washed 5 times with PBS containing 0.05% Tween 20 (PBST) for 5 min. Subsequently, 0.1 ml Biotinylated anti-p40 antibody (100 nM) was added to the plates in PBS containing 0.1% BSA and incubated overnight at 4° C. or at RT for 1 hour. After incubation, plates were washed 5 times with PBST and blocked with PBS containing 0.1% BSA and 0.5% gelatin (0.120 ml/well) for at least 1 hour at room temperature or overnight at 4° C. After washing 5 times with PBST, 100 nM IL-23 (target) was added to 0.1 ml PBS, 0.1% BSA. For individual negative controls no IL-23 was added (background).
In the meantime, the bacteria plates were centrifuged at 1700 rpm for 10 min to pellet the bacteria. Plates with the immobilized IL-23 were washed 5 times with PBST and 0.050 ml of PBS with 0.2% BSA were added to the plate together with 0.050 ml of the bacterial culture supernatant containing phage. Plates were incubated for 1 to 1.5 hours at room temperature while shaking. Shaking of the plates enhanced the ELISA signals.
B1: binds.
B2: binds.
B3: binds.
B4: binds.
B5: binds.
B6: binds.
B7: binds.
B8: binds.
B9: binds.
B10: binds.
B11: binds.
B12: binds.
B13: binds.
B14: binds.
B15: binds.
B16: binds.
B17: binds.
B18: binds.
B19: binds.
B20: binds.
B21: binds.
B22: binds.
B23: binds.
B24: binds.
B25: binds.
B26: binds.
B27: binds.
B28: binds.
B29: binds.
B30: binds.
B31: binds.
B32: binds.
B33: binds.
B34: binds.
B35: binds.
B36: binds.
